From patent publication US20130089893A1 (TRILLIUM THERAPEUTICS, published 2013)
Values belong to the binder of their own block, whether it stands above or below them.

Assays:
[1] = molecular target: ovalbumin-anti-ovalbumin immune complexes (OVA ICs); assay: cell-based or functional assay
[2] = molecular target: heat-aggregated IgG (HAGG); assay: cell-based or functional assay

IC50, TNF-α release from MC/9 cells induced by OVA ICs [1]: 2.1 µg/mL | fold potency against rsFcγRIIa monomer, MC/9 TNF-α release [1]: 8 fold
B1: recombinant soluble FcγRIIa dimer (rsFcγRIIa dimer), head to tail homodimer construct of FIG. 1 (receptor)
chain: QAAAPPKAVLKLEPPWINVLQEDSVTLTCQGARSPESDSIQWFHNGNLIPTHTQPSYRFKANNNDSGEYTCQTGQTSLSDPVHLTVLSEWLVLQTPHLEFQEGETIMLRCHSWKDKPLVKVTFFQNGKSQKFSHLDPTFSIPQANHSHSGDYHCTGNIGYTLFSSKPVTITVQVPSMGSSSPVAPPKAVLKLEPPWINVLQEDSVTLTCQGARSPESDSIQWFHNGNLIPTHTQPSYRFKANNNDSGEYTCQTGQTSLSDPVHLTVLSEWLVLQTPHLEFQEGETIMLRCHSWKDKPLVKVTFFQNGKSQKFSHLDPTFSIPQANHSHSGDYHCTGNIGYTLFSSKPVTITVQVPSMGSSSPHHHHHH

fold potency against BIF and M2, loss of CD62L on human neutrophils induced by OVA ICs [1]: ~6 fold | fold potency against Fc-tagged monomer (M2), MC/9 TNF-α release [1]: 12 fold | fold potency against the non-Fc tagged dimer, MC/9 TNF-α release [1]: 3 fold | fold potency against BIF and M2, HAGG-induced platelet activation (CD41 and CD62P positive) [2]: ~3 fold
B2: recombinant soluble D2FcγRIIaFc (D2) protein (Fc fusion)
chain: QAAAPPKAVLKLEPPWINVLQEDSVTLTCQGARSPESDSIQWFHNGNLIPTHTQPSYRFKANNNDSGEYTCQTGQTSLSDPVHLTVLSEWLVLQTPHLEFQEGETIMLRCHSWKDKPLVKVTFFQNGKSQKFSHLDPTFSIPQANHSHSGDYHCTGNIGYTLFSSKPVTITVQVPSMGSSSPVAPPKAVLKLEPPWINVLQEDSVTLTCQGARSPESDSIQWFHNGNLIPTHTQPSYRFKANNNDSGEYTCQTGQTSLSDPVHLTVLSEWLVLQTPHLEFQEGETIMLRCHSWKDKPLVKVTFFQNGKSQKFSHLDPTFSIPQANHSHSGDYHCTGNIGYTLFSSKPVTITVQVPSMGSSSPPRGPTIKPCPPCKCPAPNLEGGPSVFIFPPKIKDVLMISLSPIVTCVVVDVSEDDPDVQISWFVNNVEVHTAQTQTHREDYNSTLRVVSALPIQHQDWMSGKAFACAVNNKDLPAPIERTISKPKGSVRAPQVYVLPPPEEEMTKKQVTLTCMVTDFMPEDIYVEWTNNGKTELNYKNTEPVLDSDGSYFMYSKLRVEKKNWVERNSYSCSVVHEGLHNHHTTKSFSRTPGK
